Where a chain is given by its changes, count along the chain named.
B1: MOR02619 (Fab, V domains shown)
VH: QVQLQESGPGLVKPGETLSLTCTVSGGSISSYYWSWIRQAPGKGLEWIGIGHWGSTQYNPSLKGRVTISVDTSKNQFSLKLSSVTAEDTAVYYCARFFDVWGQGTLVTVSS
VL: DIVLTQPPSVSGAPGQRVTISCSGSSSNIGSNTVRWYQQLPGTAPKLLIYSNNKRPSGVPDRFSGSKSGTSASLAITGLQSEDEADYYCQSWDGASTGVFGGGTKLTVLG
notes: HuCAL GOLD Fab, VH4/L1
B2: MOR02610 (Fab, V domains shown)
VH: QVQLVQSGAEVKKPGASVKVSCKASGYTFTGFYINWVRQAPGQGLEWMGWINPYSGNTRYAQKFQGRVTMTRDTSISTAYMELSSLRSEDTAVYYCARSPVYYKYDYWGQGTLVTVSS
VL: DIVLTQPPSVSGAPGQRVTISCSGSSGNIGINFVNWYQQLPGTAPKLLIYKNNKRPSGVPDRFSGSKSGTSASLAITGLQSEDEADYYCQSYDKTSSTYVFGGGTKLTVLG
notes: HuCAL GOLD Fab, VH1B/L1
B3: MOR02722 (Fab, V domains shown)
VH: QVQLVESGGGLVQPGGSLRLSCAASGFTFSSNAIHWVRQAPGKGLEWVSSISGSGSNTYYADSVKGRFTISRDNSKNTLYLQMNSLRAEDTAVYYCARFIASWGQGTLVTVSS
VL: DIVMTQSPLSLPVTPGEPASISCRSSQSLVHSNGYTDLNWYLQKPGQSPQLLIYLGSYRASGVPDRFSGSGSGTDFTLKISRVEAEDVGVYYCQQYSNFPFTFGQGTKVEIKR
notes: HuCAL GOLD Fab, VH3/K2
B4: MOR02614 (Fab, V domains shown)
VH: B3 VH with S30N, S31N, A33W, I34M, S50F, N57H, F99A, I100Y, A101D, S102V
VL: DIVLTQPPSVSGAPGQRVTISCSGSSSNIGFNYVNWYQQLPGTAPKLLIYGNSKRPSGVPDRFSGSKSGTSASLAITGLQSEDEADYYCAMFSPEGVFGGGTKLTVLG
notes: HuCAL GOLD Fab, VH3/L1
B5: MOR02618 (Fab, V domains shown)
VH: QVQLVESGGGLVQPGGSLRLSCAASGFTFNNYGMTWVRQAPGKGLEWVSSIYGYGSNTYYADSVKGRFTISRDNSKNTLYLQMNSLRAEDTAVYYCARNYWVFAYWGQGTLVTVSS
VL: DIELTQPPSVSVAPGQTARISCSGDNIPGKSVHWYQQKPGQAPVLVIYGKMNRPSGIPERFSGSNSGNTATLTISGTQAEDEADYYCQSYDNFNDSVVFGGGTKLTVLG
notes: HuCAL GOLD Fab, VH3/L3
B6: MOR02622 (Fab, V domains shown)
VH: QVQLVESGGGLVQPGGSLRLSCAASGFTFSNYAMTWVRQAPGKGLEWVSGISYKSSSTYYADSVKGRFTISRDNSKNTLYLQMNSLRAEDTAVYYCARGLVTFDNWGQGTLVTVSS
VL: DIALTQPASVSGSPGQSITISCTGTSSDGGTYNFVSWYQQHPGKAPKLMIYRVSNRPSGVSNRFSGSKSGNTASLTISGLQAEDEADYYCSSWTHSFTDYVFGGGTKLTVLG
notes: HuCAL GOLD Fab, VH3/L2
B7: MOR02616 (Fab, V domains shown)
VH: QVQLVESGGGLVQPGGSLRLSCAASGFTFRNNAMHWVRQAPGKGLEWVSAISSSGSGTYYADSVKGRFTISRDNSKNTLYLQMNSLRAEDTAVYYCARVIVLFDYWGQGTLVTVSS
VL: DIVLTQSPATLSLSPGERATLSCRASQNVRSNLAWYQQKPGQAPRLLIYGASNRATGVPARFSGSGSGTDFTLTISSLEPEDFAVYYCLQKYSIPFTFGQGTKVEIKR
notes: HuCAL GOLD Fab, VH3/K3
B8: MOR02613 (Fab, V domains shown)
VH: QVQLVESGGGLVQPGGSLRLSCAASGFTFSNYTMTWVRQAPGKGLEWVSFIIGSGSNTSYADSVKGRFTISRDNSKNTLYLQMNSLRAEDTAVYYCARYVNGFDIWGQGTLVTVSS
VL: DIALTQPASVSGSPGQSITISCTGTSSDVGVYYYVSWYQQHPGKAPKLMIYYDSKRPSGVSNRFSGSKSGNTASLTISGLQAEDEADYYCQTYAKKDYSLVFGGGTKLTVLG
notes: HuCAL GOLD Fab, VH3/L2
B9: MOR02611 (Fab, V domains shown)
VH: QVQLVQSGAEVKKPGASVKVSCKASGYTFSGSYMHWVRQAPGQGLEWMGIINPASGKTLYAQKFQGRVTMTRDTSISTAYMELSSLRSEDTAVYYCARGLYYRFASWGQGTLVTVSS
VL: DIALTQPASVSGSPGQSITISCTGTSSDIGGYHSVSWYQQHPGKAPKLMIYRSNRPSGVSNRFSGSKSGNTASLTISGLQAEDEADYYCAAATGGWVFGGGTNLTVLG
notes: HuCAL GOLD Fab, VH1B/L2
B10: MOR03069 (Fab, V domains shown)
VH: B1 VH
VL: DIVLTQPPSVSGAPGQRVTISCSGSSSNIGSNTVRWYQQLPGTAPKLLIYSNNKRPSGVPDRFSGSKSGTSASLAITGLQSEDEADYYCWTGMSYHFVFGGGTKLTVLG
notes: Fab, L-CDR3 derivative of MOR02619
B11: MOR03055 (Fab, V domains shown)
VH: B1 VH
VL: DIVLTQPPSVSGAPGQRVTISCSGSSSNIGSNTVRWYQQLPGTAPKLLIYSNNKRPSGVPDRFSGSKSGTSASLAITGLQSEDEADYYCQAWTRAHRYPVFGGGTKLTVLG
notes: as for B10
B12: MOR03066 (Fab, V domains shown)
VH: B1 VH
VL: B1 VL with Q90S, W92Y, G94T, A95Q, S96V, G98R
notes: as for B10
B13: MOR03075 (Fab, V domains shown)
VH: B1 VH
VL: B1 VL with G94P, A95R, T97F, G98T
notes: as for B10
B14: MOR03071 (Fab, V domains shown)
VH: B1 VH
VL: B1 VL with Q90L, S91A, W92Y, D93I, G94Q, A95S, S96K, T97G, G98H
notes: as for B10
B15: MOR03243 (Fab, V domains shown)
VH: QVQLQESGPGLVKPGETLSLTCTVSGGSISSYYWSWIRQAPGKGLEWIGEIHRGGYTQYNPSLKSRVTISVDTSKNQFSLKLSSVTAADTAVYYCARFFDVWGQGTLVTVSS
VL: B11 VL
notes: Fab, H-CDR2 derivative of MOR03055

The binders below were run against T1, recombinant fibronectin domain 6 (UniProt P02751 1086-1172, limits assumed) (assay: specificity ELISA on immobilised recombinant fibronectin domain 6).
T1 construct: domain: fibronectin domain 6; also called 6FN; 6-FN

Row | binding result | Binder
1 | no binding | B1
2 | no binding | B2
3 | no binding | B3
4 | no binding | B4
5 | no binding | B5
6 | no binding | B6

Each binder was assayed against T2, recombinant fibronectin domain 7-8-9 (without ED-B) (UniProt P02751-1 1173-1446, limits assumed) (assay: specificity ELISA on immobilised recombinant domain 7-8-9).
T2 construct: domain: fibronectin domains 7-8-9 (without ED-B)

Row | binding result | Binder
7 | no binding | B1
8 | no binding | B2
9 | no binding | B3
10 | no binding | B4
11 | no binding | B5
12 | no binding | B6

These binders were tested against T3, recombinant fibronectin domain ED-B (His)6 (human, UniProt P02751 1266-1356) (assay: SPR (BIAcore), ED-B immobilised on chip, Fab in flow).
T3 construct: domain: ED-B; Produced by standard procedures; immobilised on ELISA plates or on the BIAcore chip; also called recombinant ED-B; human ED-B
Protocol: (§1) F1-Chips (Biacore, Sweden) were coated with about 200 RU of ED-B (30 μg/ml, 10 mmol of acetate buffer, pH 4.0) and reference flow cells with a corresponding amount of human serum albumin (20 μg/ml, 10 mmol of acetate buffer, pH 4.5) with use of standard EDC-NHS-amine-coupling chemistry. The antigen density was reduced to about 100 RU for the Fab characterization of the second maturation. The regeneration was carried out with 10 mmol of HCl. All kinetic measurements were carried out in PBS buffer (136 mmol of NaCl, 2.7 mmol of KCl, 10 mmol of Na₂HPO₄, 1.76 mmol of KH₂PO₄, pH 7.4) with a flow rate of 20 μl/minute with use of a Fab concentration range of 1.5-500 nmol. The injection period was 1 minute in each case. All sensograms were evaluated with use of BIA evaluation software 3.1.
The properties of twelve selected binding molecules was determined by BIAcore analysis (see Table 1). […] At least two independent measurements with Fab molecules from different batches were performed for protein expression and protein purification. The binding rate (Kₒₙ) and the dissociating-off rate (Koff) of the Fab molecule are indicated in separate columns.

Row | Kd | koff | kon | Binder
13 | 59 nM | 0.028 s⁻¹ | 540000 M⁻¹ s⁻¹ | B7
14 | 15.4 nM | 0.012 s⁻¹ | 780000 M⁻¹ s⁻¹ | B1
15 | 75 nM | 0.091 s⁻¹ | 1.3e+06 M⁻¹ s⁻¹ | B2
16 | 164 nM | 0.13 s⁻¹ | 780000 M⁻¹ s⁻¹ | B8
17 | 332 nM | 0.051 s⁻¹ | 150000 M⁻¹ s⁻¹ | B9
18 | 94 nM | 0.014 s⁻¹ | 150000 M⁻¹ s⁻¹ | B3
19 | 160 nM | 0.042 s⁻¹ | 280000 M⁻¹ s⁻¹ | B4
20 | 477 nM | 0.2 s⁻¹ | 430000 M⁻¹ s⁻¹ | B5
21 | 21.3 nM | 0.0051 s⁻¹ | 240000 M⁻¹ s⁻¹ | B6

These binders were tested against T3, recombinant fibronectin domain ED-B … (assay: SPR (BIAcore); ratio to parent clone MOR02619).
Protocol: as §1

Row | x-Fold Improvement Relative to the Parent Clone, KD | x-Fold Improvement Relative to the Parent Clone, Koff | x-Fold Improvement Relative to the Parent Clone, Kon | Binder
22 | 4.8 fold | 3.2 fold | 1.5 fold | B10
23 | 5.4 fold | 2.6 fold | 2.2 fold | B11
24 | 3.8 fold | 2.8 fold | 1.4 fold | B12
25 | 6.8 fold | 5 fold | 1.4 fold | B13
26 | 5.1 fold | 2.3 fold | 2.3 fold | B14

Molecular target: T3, recombinant fibronectin domain ED-B …
Assay: SPR (BIAcore), ED-B immobilised on chip, Fab in flow
Remark: another data set of the same source
Protocol: as §1

Row | Kd | koff | kon | Binder
27 | 15.4 nM | 0.012 s⁻¹ | 780000 M⁻¹ s⁻¹ | B1
28 | 3.3 nM | 0.0041 s⁻¹ | 1.2e+06 M⁻¹ s⁻¹ | B10
29 | 3 nM | 0.0051 s⁻¹ | 1.8e+06 M⁻¹ s⁻¹ | B11
30 | 4.2 nM | 0.0047 s⁻¹ | 1.1e+06 M⁻¹ s⁻¹ | B12
31 | 2.4 nM | 0.0026 s⁻¹ | 1.1e+06 M⁻¹ s⁻¹ | B13
32 | 3.1 nM | 0.0057 s⁻¹ | 1.9e+06 M⁻¹ s⁻¹ | B14

Each binder was assayed against T3, recombinant fibronectin domain ED-B … (assay: SPR (BIAcore), ED-B immobilised on chip (about 100 RU), Fab in flow).
Protocol: as §1

Row | Kd | koff | kon | Binder
33 | 0.7 nM | 0.0018 s⁻¹ | 2.9e+06 M⁻¹ s⁻¹ | B15

Reference: US20060115428A1 (MorphoSys, published 2006)
